Laboratory results reported in patent US20170290886.

Test system: Recombinant GST-tagged MeCP2 protein (Prospec)

His-tagged PIAS1 protein
MeCP2 SUMOylation (in vitro SUMOylation assay with purified proteins): MeCP2 SUMOylation occurred when E1, E2, PIAS1 (the protein inhibitor of activated STAT1) and MeCP2 proteins were added
